Assay results as given in patent US20240034784A1 (published 2024).

What was measured:
hClaudin18.2 = hClaudin18.2 (human, UniProt P56856 1-261); test: FACS
CLDN18.2 = CLDN18.2 (human, UniProt P56856 1-261); test: FACS

EC50 (hClaudin18.2): 6.72 nM
EC50 (CLDN18.2): 19.1 nM
B1: IMAB362 (antibody, V domains shown)
VH: QVQLQQPGAELVRPGASVKLSCKASGYTFTSYWINWVKQRPGQGLEWIGNIYPSDSYTNYNQKFKDKATLTVDKSSSTAYMQLSSPTSEDSAVYYCTRSWRGNSFDYWGQGTTLTVSS
VL: DIVMTQSPSSLTVTAGEKVTMSCKSSQSLLNSGNQKNYLTWYQQKPGQPPKLLIYWASTRESGVPDRFTGSGSGTDFTLTISSVQAEDLAVYYCQNDYSYPFTFGSGTKLEIKR
